Source: PMC8256705, “Putative hexameric glycosyltransferase functional unit revealed by the crystal structure of Acinetobacter baumannii MurG” (IUCrJ, 2021)

What was measured:
[1] = biological target: the molecule itself; assay: SEC-MALS; highly oligomeric SEC peak; Superdex 200 10/300, 20 mM Tris-HCl pH 8.0, 150 mM NaCl, 0.4 ml/min, 25°C
[2] = biological target: the molecule itself; assay: SEC-MALS; dimer-sized SEC peak; Superdex 200 10/300, 20 mM Tris-HCl pH 8.0, 150 mM NaCl, 0.4 ml/min, 25°C

B1: MurG from Acinetobacter baumannii (abMurG), full length, wild type (enzyme, UniProt A3M9Y1 1-365, looked up)
chain: MTDSQQSKPKHVMMMAAGTGGHVFPALAVAKQLQQQGCQVSWLATPTGMENRLLKDQNIPIYQIDIQGVRGNGVIRKLAAPFKILKATFSAMRYMKQLKVDAVAGFGGYVAGPGGLAARLLGIPVLIHEQNAVAGFTNAQLSRVAKVVCEAFPNTFPASEKVVTTGNPVRREITDILSPKWRYDEREQADKPLNILIVGGSLGAKALNERLPPALKQLEVPLNIFHQCGQQQVEATQALYADAPANLTIQVLPFIEDMAKAYSEADLIICRAGALTVTEVATAGVAAVFVPLPIAVDDHQTANAKFLADIGAAKICQQSTMTPEVLNQLFTTLMNRQLLTEMAVKARQHAQPNATQHVVDLIQKM
notes: MurG glycosyltransferase of Acinetobacter baumannii, full length, amino acids Met1-Met365 (365 amino acids); Theoretical mass with the C-terminal His tag is printed as 39.4 kDa; Found as a dimer and as a hexamer in solution; only the large-size SEC peak crystallized; also called wild-type abMurG; source: E. coli BL21 (DE3), purified (nickel-nitrilotriacetic acid resin, SEC); not shown: His tag, …
- stoichiometry N [1]: 6
- stoichiometry N [2]: 2
